Measured values as given in PMC11588662.

How the values were obtained:
[1] = molecular target: CD33 on human AML cells (Kasumi-1, HL-60, MOLM14) (human (endogenous in Kasumi-1, HL-60, MOLM14)) (UniProt P20138); assay: flow cytometry on cells; MOLM14 GFP^-CD117^midCD33^+ cells stained with 10 nM of either Db-FM or both (10 nM each); fluorescence (MFI)
[2] = molecular target: CD33 on human AML cells (Kasumi-1, HL-60, MOLM14) (human (endogenous in Kasumi-1, HL-60, MOLM14)) (UniProt P20138); assay: flow cytometry on cells; 50 ug CD117 or CD33 Db-FM injected i.v. into NSG mice engrafted with MOLM14-CD117^highGFP^+Luc^+ cells; femora collected after 1 and 6 h; MFI (APC anti-FITC) interpolated on an ex vivo titration of Db-FM on cells of a control mouse

Sequence of CD33 on human AML cells (Kasumi-1, HL-60, MOLM14) (human (endogenous in Kasumi-1, HL-60, MOLM14)) (P20138 18-364): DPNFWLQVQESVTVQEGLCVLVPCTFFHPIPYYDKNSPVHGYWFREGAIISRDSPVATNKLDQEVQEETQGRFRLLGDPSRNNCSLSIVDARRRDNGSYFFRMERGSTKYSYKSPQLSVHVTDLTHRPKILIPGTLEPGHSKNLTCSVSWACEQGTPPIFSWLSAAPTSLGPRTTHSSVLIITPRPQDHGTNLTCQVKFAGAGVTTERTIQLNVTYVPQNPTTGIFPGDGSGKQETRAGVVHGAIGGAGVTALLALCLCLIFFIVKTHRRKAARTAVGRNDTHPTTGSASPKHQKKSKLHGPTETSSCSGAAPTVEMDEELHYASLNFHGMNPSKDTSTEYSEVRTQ

MFI [1]: 942
interpolated on-tumor Db-FM concentration 1 h after injection [2]: 0.99 nM
interpolated on-tumor Db-FM concentration 6 h after injection [2]: 0.22 nM
Substance: CD33 Db-FM (fluorescein-maleimide-labelled anti-CD33 diabody, clone SGN-33)
